Laboratory results from the RNAGym collection of RNA variant scans (doi:10.1073/pnas.2313332121).

B1: TPR t1 (parent)
chain: GACCAAUCUGCCCUCAGAGCUCGAGAACAUCUUCGGAUGCAGAGGAGGCAGGCUUCGGUGGCGCGAUAGCGCCAACGUCCUCAACCUCCAAUGCAUCCCACCACAUGAUGAUGCCUGAAGAGCCUUGGUUUUUUG

Variants of: B1
Experiment: polymerase ribozyme fitness, log enrichment relative to wild type (log ratio); higher = more active; in vitro selection for triplet polymerase activity
Procedure, shortened: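 Mutant libraries were PCR-built and transcribed for each subunit of a heterodimeric triplet polymerase ribozyme and selected for one round in triplicate at −7 °C, frozen, before gel excision of extended constructs and streptavidin-bead capture. Input and output libraries were Illumina-sequenced, keeping genotypes with ≥10 input reads and ≥1 read per output. Fitness is a logarithmic ratio of genotype to wild-type enrichment, in base 2, using inverse-variance-weighted replicate averages.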

| Variant | polymerase ribozyme fitness (log ratio) |
| --- | --- |
| U14G C72A | -2.6 |
| C15A G52U C94G | -3.9 |
| A37C G45A G113U | -4.52 |
| C34A U112A | -1.81 |
| C34G G36A U96A C124U | -6.45 |
| A5U A29U C94U | -2.08 |
| U38A G127A | -2.5 |
| A46U C73U A90C U133A | -1.35 |
| C12U C34G C115G | -6.11 |
| A16U G117U | -2.04 |
| C49U G71C C94G | -2.87 |
| U55A C62A U78C C79A U125G U133G | -3.28 |
| G42A G47A U112A | -1.49 |
| A84C C94G U96C C124U | -0.869 |
| C8A C49A G71U C86A G122A | -0.666 |
| G71C C79A | -1.86 |
| C22G U112G | -2.35 |
| C8A A43C C86G C123U U129G | -2.96 |
| A26G U129C | -2.73 |
| G60U G63U G113U G117U | -5.19 |
| C72A C82G | -0.603 |
| C40U A50U G51A C82A C85U | -4.25 |
| C15A A29U G69A G120C | -1.85 |
| C88A C99A U125G | -6.88 |

| Variant | polymerase ribozyme fitness (log ratio) |
| --- | --- |
| U9G C94A | -0.976 |
| G48C A83C A90C G110A | -3.46 |
| A16C G25U A26G | -4.77 |
| U7A C8A A37G U59G C62U C88U G113C | -3.69 |
| G17C G61A C82A | -4.03 |
| C56A C72U U109G | -5.76 |
| U109G G113A | -5.72 |
| U33G C76G C88A C115U | -6.6 |
| A41C C53G C85A A111U U112A U116C | -6.24 |
| C64U C86A U129A | -1.99 |
| A43G G61A | -1.27 |
| C8A G17A C72U U126A | -3.12 |
| C11U U54A | -0.542 |
| G10C C12G C72A A105U | -3.93 |
| C34A U55A C88A | -3.93 |
| U87A C101U | 0.0521 |
| A27G C40U G61C | -4.06 |
| G69C C124U | 0.177 |
| U7A C34A G61U C97U | -2.06 |
| C53A G135A | 0.127 |
| U21A A46G G128C G135C | -0.459 |
| A6C C80A | -1.52 |
| G36A C89A | -2.49 |
| G48C A100U | -1.76 |

| Variant | polymerase ribozyme fitness (log ratio) |
| --- | --- |
| U7G G117U | -2.24 |
| C3G G71C A90U A95U U112A | -3.23 |
| U7G C40U U54C C73A U106A | 1.14 |
| G47C C82U | -1.27 |
| U9C A26G A27U U54A A74G C82G | -6.24 |
| C12G U59G A90G G113A | -2.53 |
| G47A C70G | -4.77 |
| U78C U126C U129C | -2.29 |
| A41U A50C | -1.53 |
| C73A C88U C99A A100C | -3.87 |
| G63U C89A | -2.53 |
| C8A G47C | -1.8 |
| U38G A90U | -1.61 |
| G36C G128C | -4.43 |
| A5G A83U | -1.18 |
| G71A C85G U126C | -2.15 |
| U38G U106A | -1.09 |
| C73U C115A | -0.495 |
| C12G G19A G93U U106A A111G C115A | -6.62 |
| A41U G52A G117U | -4.85 |
| A26G A43U G69U U112A | -0.179 |
| G42U A50C | -1.99 |
| C8A G17A U54A G71U C94A | -4.99 |
| C3U C12G G71U | -0.231 |

| Variant | polymerase ribozyme fitness (log ratio) |
| --- | --- |
| C104U U106A U109A C114U C123U | -6.98 |
| G57U G77U G113A G127C | -2.59 |
| A74G C123G | 1.31 |
| A43G G93C G120A | -2.35 |
| C99U G128A U129A | -5.76 |
| A95U U109A U130G | -6.07 |
| G52A U87C | 0.43 |
| G63U | -1.18 |
| C40U G61U C86G | -2.87 |
| C11U A66C C94U | -1.69 |
| C49G C70G | -4.79 |
| C49G G57U | -0.441 |
| G48U A111C | -0.214 |
| C40U G42A C56A C76G G93U C114G | -4.34 |
| C102U A121U | 0.0802 |
| G58C U106A | 0.185 |
| C40G C115A G120C G122U | -1.41 |
| G113A G128C | -2.85 |
| G39U U54G C73G | -4.41 |
| C22A A95U | -4.83 |
| G93C C124U U125C | -1.05 |
| U38G C56U C72A U131C | -2.05 |
| A2G C13U C53U C72G | -0.398 |
| A2U U32C C79A | -4.3 |

| Variant | polymerase ribozyme fitness (log ratio) |
| --- | --- |
| A111G G113C | -2.06 |
| C56A C99U C102U | -5.77 |
| A43U G77A G120A U134G | -0.215 |
| A2C C12G G69C G110U G128C | -5.29 |
| G61A U92A C123A | -2.16 |
| A43G G47U | -3.37 |
| C13U C70A A121G | 0.554 |
| G47A U92C | -2.73 |
| C56G U87G A100C | -1.94 |
| C8G C13A A18G C53A C88A U125G | -3.4 |
| A46C C56U U78A A90G C94U A111C | 0.0877 |
| A50U G113C | -3.07 |
| C49G G69U G117A | -1.13 |
| G35U A90C C97G A121C | -7.34 |
| G39A C73A G117A A119G | 1.02 |
| C73A G122A | -0.64 |
| C22U C70U G117C | -6.77 |
| C12A G19C C85U A91U G122U | -3.66 |
| U33C C124A | -2.98 |
| G71C C98U | -1.75 |
| G42A U87G | -1.65 |
| C22G U87A C114A | -2.89 |
| G36U G60C | -1.25 |
| C8U U78A G93U C101G C104A C124U | -3.7 |

| Variant | polymerase ribozyme fitness (log ratio) |
| --- | --- |
| U55A G69U C82G | 0.171 |
| C62U G117A U131A | -1.44 |
| C85G C123A | -0.897 |
| C13U G69C | -1.26 |
| C53G U78C C82U G120A | 0.0778 |
| C64G U112G | -6.14 |
| G63C C80U G110A | -2.48 |
| C22U A27C A41U A50U G60C C82U | -6.98 |
| G42A U116C | -3.35 |
| C49U G58C | -0.728 |
| C3U A90G | -0.86 |
| C4A C86G | -2.58 |
| C4U G45U | -1.35 |
| C8A G48U C53A C62U C82U U106A A108G | -1.01 |
| C53A G61A C79A | -0.911 |
| A18G U131A | -2.69 |
| A37U C88U | -0.319 |
| A41C C80G A121G U132A | -4.51 |
| G42A C56G | -1.49 |
| G57U C89A | -1.5 |
| U14G G45C G110U | -3.81 |
| U92C G128C | -3.41 |
| G36A A37G C70A | -3.19 |
| G10C C15U A41C C53G C89U | -3.28 |

| Variant | polymerase ribozyme fitness (log ratio) |
| --- | --- |
| C4A U59C G69U C115U | -3.99 |
| U55C G120U C123G U131A | -0.058 |
| C62U A111U | -2.55 |
| C11G C12A C40U C99U G117A C124G | -6.76 |
| U54G C89A U131G | -2.74 |
| C12U C15A A37C G52U U116G | -3.09 |
| G36A G42A A74G G127C | -3.95 |
| U59C U130C | -0.123 |
| G71A G110C | -4.27 |
| C82U G93C G117U | -2.53 |
| C15A C40A C56G | -6.31 |
| C40U G61C C88A | -2.87 |
| A41G G44C G63A C102U C124A G128A | -4.69 |
| C13A C64U | -1.99 |
| A18G U132A | -3.07 |
| C8A C70U C88U | -0.306 |
| A103G U130A | -5.53 |
| C3A G52U C64U | -2.19 |
| G45A C98U | -1.75 |
| U87A C89G | -2.18 |
| A24C G120A | -4.02 |
| U9A A16U G63C U132A | -0.608 |
| C8G C20A A84C C124U | -0.801 |
